Test results published in article doi:10.1101/2020.05.04.070177, “Mechanistic insights into RNA binding and RNA-regulated RIG-I ubiquitination by TRIM25” (bioRxiv, 2020).

Tests used:
[1] = molecular target: T1, TRIM25 CC-PRY/SPRY (UniProt Q14258 189-630); assay: filter binding; ITC and filter binding: 20 mM MES pH 6.5, 75 mM NaCl, 0.5 mM TCEP (ITC 20 C, filter binding on ice); NMR: 20 mM Na phosphate pH 6.5, 150 mM NaCl, 2 mM TCEP, 293 K; conditions: protein: recombinant, tags: His-Trx (removed), chain copies: 2, hairpin
[2] = molecular target: the molecule itself; assay: NMR titration; CC-PRY/SPRY with pre-let-7 RNA added; domain-domain interaction within the construct; 1H,15N-HSQC
[3] = molecular target: T1, TRIM25 CC-PRY/SPRY; assay: ITC; ITC and filter binding: 20 mM MES pH 6.5, 75 mM NaCl, 0.5 mM TCEP (ITC 20 C, filter binding on ice); NMR: 20 mM Na phosphate pH 6.5, 150 mM NaCl, 2 mM TCEP, 293 K; conditions: protein: recombinant; tags: His-Trx (removed); chain copies: 2; single strand
[4] = molecular target: T2, TRIM25 PRY/SPRY (UniProt Q14258 439-630); assay: as above; conditions: protein: recombinant; tags: His-Trx (removed); single strand
[5] = molecular target: T2, TRIM25 PRY/SPRY; assay: NMR; CSPs at site 2 only; ITC and filter binding: 20 mM MES pH 6.5, 75 mM NaCl, 0.5 mM TCEP (ITC 20 C, filter binding on ice); NMR: 20 mM Na phosphate pH 6.5, 150 mM NaCl, 2 mM TCEP, 293 K; conditions: protein: recombinant; tags: His-Trx (removed); chain copies: 3; hairpin
[6] = molecular target: T1, TRIM25 CC-PRY/SPRY; assay: ITC; first of two fitted sites; ITC and filter binding: 20 mM MES pH 6.5, 75 mM NaCl, 0.5 mM TCEP (ITC 20 C, filter binding on ice); NMR: 20 mM Na phosphate pH 6.5, 150 mM NaCl, 2 mM TCEP, 293 K; conditions: protein: recombinant; tags: His-Trx (removed); chain copies: 2; hairpin
[7] = molecular target: T1, TRIM25 CC-PRY/SPRY; assay: ITC; second fitted site, N 0.10; ITC and filter binding: 20 mM MES pH 6.5, 75 mM NaCl, 0.5 mM TCEP (ITC 20 C, filter binding on ice); NMR: 20 mM Na phosphate pH 6.5, 150 mM NaCl, 2 mM TCEP, 293 K; conditions: protein: recombinant; tags: His-Trx (removed); chain copies: 2; hairpin
[8] = molecular target: T3, TRIM25 CC-PRY/SPRY penta-mutant (UniProt Q14258 189-630, K283A;K285A;H505E;K508E;K602E); assay: ITC; no binding detected; ITC and filter binding: 20 mM MES pH 6.5, 75 mM NaCl, 0.5 mM TCEP (ITC 20 C, filter binding on ice); NMR: 20 mM Na phosphate pH 6.5, 150 mM NaCl, 2 mM TCEP, 293 K; conditions: protein: recombinant; tags: His-Trx (removed); chain copies: 2; hairpin
[9] = molecular target: T1, TRIM25 CC-PRY/SPRY; assay: ITC; second fitted site, N 0.08; ITC and filter binding: 20 mM MES pH 6.5, 75 mM NaCl, 0.5 mM TCEP (ITC 20 C, filter binding on ice); NMR: 20 mM Na phosphate pH 6.5, 150 mM NaCl, 2 mM TCEP, 293 K; conditions: protein: recombinant; tags: His-Trx (removed); chain copies: 2; hairpin
[10] = molecular target: T3, TRIM25 CC-PRY/SPRY penta-mutant; assay: ITC; ITC and filter binding: 20 mM MES pH 6.5, 75 mM NaCl, 0.5 mM TCEP (ITC 20 C, filter binding on ice); NMR: 20 mM Na phosphate pH 6.5, 150 mM NaCl, 2 mM TCEP, 293 K; conditions: protein: recombinant; tags: His-Trx (removed); chain copies: 2; hairpin
Target sequence in this assay (Q14258 189-630 K283A/K285A/H505E/K508E/K602E): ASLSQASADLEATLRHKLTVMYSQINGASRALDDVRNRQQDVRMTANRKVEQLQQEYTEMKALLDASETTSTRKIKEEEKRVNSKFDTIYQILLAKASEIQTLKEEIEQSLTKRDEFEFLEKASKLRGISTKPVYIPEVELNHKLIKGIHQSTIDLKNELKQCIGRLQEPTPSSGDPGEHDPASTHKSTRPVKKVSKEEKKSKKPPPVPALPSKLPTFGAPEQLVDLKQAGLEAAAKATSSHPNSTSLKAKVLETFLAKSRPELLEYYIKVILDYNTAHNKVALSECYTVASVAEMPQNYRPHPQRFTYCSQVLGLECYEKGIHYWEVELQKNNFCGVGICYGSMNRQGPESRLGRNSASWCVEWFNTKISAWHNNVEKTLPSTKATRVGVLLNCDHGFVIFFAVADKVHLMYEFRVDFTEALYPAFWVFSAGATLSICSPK

[11] = molecular target: T1, TRIM25 CC-PRY/SPRY; assay: ITC; first of two fitted sites (second 106 nM); ITC and filter binding: 20 mM MES pH 6.5, 75 mM NaCl, 0.5 mM TCEP (ITC 20 C, filter binding on ice); NMR: 20 mM Na phosphate pH 6.5, 150 mM NaCl, 2 mM TCEP, 293 K; conditions: protein: recombinant; tags: His-Trx (removed); chain copies: 2; hairpin

GUGUAAAAUGAUGGAAUAUAUACUAUCGUUUUACGC (structured_RNA) [roX2 stem-loop (SL7 in text, SL6 in Table 2)]
Kd ([1]; label: 5' 32P): 18.1 ± 2.2 nM

B1: TRIM25 CC-PRY/SPRY (aa 189-630) (domain or fragment, human, UniProt Q14258 189-630, looked up)
chain: ASLSQASADLEATLRHKLTVMYSQINGASRALDDVRNRQQDVRMTANRKVEQLQQEYTEMKALLDASETTSTRKIKEEEKRVNSKFDTIYQILLKKKSEIQTLKEEIEQSLTKRDEFEFLEKASKLRGISTKPVYIPEVELNHKLIKGIHQSTIDLKNELKQCIGRLQEPTPSSGDPGEHDPASTHKSTRPVKKVSKEEKKSKKPPPVPALPSKLPTFGAPEQLVDLKQAGLEAAAKATSSHPNSTSLKAKVLETFLAKSRPELLEYYIKVILDYNTAHNKVALSECYTVASVAEMPQNYRPHPQRFTYCSQVLGLHCYKKGIHYWEVELQKNNFCGVGICYGSMNRQGPESRLGRNSASWCVEWFNTKISAWHNNVEKTLPSTKATRVGVLLNCDHGFVIFFAVADKVHLMYKFRVDFTEALYPAFWVFSAGATLSICSPK
notes: TRIM25 coiled-coil (CC), L2 linker and PRY/SPRY domain, aa 189-630; also called TRIM25 189-630
binding result [2]: binds

UAAAAGGAGAU (ssRNA) [pre-let-7 loop]
Kd [3]: 4100 ± 1900 nM | Kd [4]: 42000 ± 53000 nM

GUAUAGUUCAACUAUAC (structured_RNA) [pre-let-7 stem (stem-fusion)]
binding result [5]: binds

UUUUAUCUGAGUUGGAGGUGAAG (structured_RNA) [Lnczc3h7a-SL]
Kd [6]: 486 ± 77 nM | Kd [7]: 8900 ± 4500 nM | binding result [8]: no binding

GCAGGUCGGAUUAAGCCAUAGUACGGGAAAAACUAUGCUACCUG (structured_RNA) [DENV-SL]
Kd [9]: 106 ± 35 nM | Kd [10]: 363 ± 84 nM | Kd [1]: 1.63 ± 0.38 nM | Kd [11]: 15.2 ± 3 nM
